Measurements as given in the supplement of paper PMC9732359.
± gives the uncertainty stated by the source.

Assay: protein stability index of a GFP-peptide fusion (yeast GPS) (PSI 1-4); higher = more stable; sorted into four equal gates, so the index is relative within each strain
In short: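 Tiled 17-residue yeast protein peptides were fused downstream of GFP in a plasmid that also expresses Cherry, and the pooled library was carried in yeast. Mid-log cultures in leucine-free medium were sorted into four equal gates by GFP/Cherry fluorescence ratio, and plasmids from each gate were PCR-amplified and Illumina-sequenced, with reads assigned to strains by barcodes. The protein stability index for each peptide was each gate's read frequency times its gate number, summed.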

Sequence	protein stability index (doa10∆)	protein stability index (pdr5∆)	protein stability index (san1∆)	protein stability index (ubr1∆)
LFNESFIMASVGKYDKA [SRP72]	3 ± 0.29	2.85 ± 0.27	–	–
KSMASAFGVSVAFLDND [RPN7]	3.04 ± 0.091	3.08 ± 0.093	3.01 ± 0.066	3.24 ± 0.062
SVTAQVYKIALRLTEQK [RPC82]	1.79 ± 0.15	2.19 ± 0.14	2.22 ± 0.19	–
HKKDRLQYLPLYAVSTF [SIR4]	1.59 ± 0.035	1.66 ± 0.035	1.35 ± 0.054	1.89 ± 0.037
KYREGQVLFQGLIYSFN [POP1]	2.46 ± 0.12	2.11 ± 0.081	2.46 ± 0.065	2.42 ± 0.11
PNHIPSVNPSNKPIKRM [SWP82]	2.87 ± 0.087	2.96 ± 0.057	2.75 ± 0.081	3.02 ± 0.042
PNIRELGVKNLGLCCLL [YCG1]	2.91 ± 0.25	–	1.87 ± 0.21	1.46 ± 0.061
ISTSFCFICLLHLANEH [BRN1]	1.67 ± 0.12	1.21 ± 0.13	–	1.35 ± 0.13
TDANGKTIVTGGNGPED [RPO26]	3.62 ± 0.21	3.28 ± 0.099	3.48 ± 0.12	3.37 ± 0.057
KAIFQFVCRGMAATQTI [ECM29]	1.52 ± 0.051	1.73 ± 0.048	1.46 ± 0.17	1.48 ± 0.049
TATGIKVFSLDPQYLVD [ASC1]	2.52 ± 0.049	2.67 ± 0.044	2.89 ± 0.039	2.58 ± 0.032
HFFKWIEFIVYHQLLSD [SRB8]	1.45 ± 0.05	1.3 ± 0.046	2.03 ± 0.08	1.2 ± 0.041
TRSHEYGRKSFRNNKND [REC8]	3.2 ± 0.11	3.16 ± 0.067	3.29 ± 0.051	3.3 ± 0.067
TGKFVLQGQMEKIMILL [CSN12]	1.61 ± 0.1	2.2 ± 0.12	1.31 ± 0.2	1.51 ± 0.12
TQEEVELPLEDFKAKYC [RPB5]	3.33 ± 0.11	3.25 ± 0.11	3.58 ± 0.11	3.28 ± 0.071
IVKRLYEYGAVSVLLIS [BRR2]	2.57 ± 0.061	2.39 ± 0.055	2.24 ± 0.099	1.64 ± 0.054
PAFKPTEKKFTKEQYAA [RPL5]	2.93 ± 0.089	3.12 ± 0.083	2.79 ± 0.067	3.04 ± 0.1
AMREVNDEKRVKEEYDI [YIL149C/MLP2]	2.62 ± 0.25	2.57 ± 0.17	–	–
PEFAGYSKAAEPHAVSL [ASC1]	2.51 ± 0.073	2.44 ± 0.063	2.17 ± 0.068	2.21 ± 0.047
FDQSTNVKVIMATNRAD [RPT3]	2.12 ± 0.054	2.15 ± 0.053	1.52 ± 0.074	2.02 ± 0.051
DYCRILSDIETAVNGID [YGL172W/NUP49]	3.28 ± 0.16	3.15 ± 0.13	2.75 ± 0.17	2.71 ± 0.1
GAFTIALAYAGTGNNSA [RPN2]	2.09 ± 0.068	2.32 ± 0.083	1.99 ± 0.099	2.15 ± 0.053
NQINSFWSLHSSTYYNL [NUT1]	2.34 ± 0.064	1.75 ± 0.049	1.72 ± 0.073	1.57 ± 0.036
EHLDCMNFISKEEFIMM [PCI8]	–	–	–	3.17 ± 0.16
WSEISNELPDIEALYDD [RPN2]	3.49 ± 0.29	3.57 ± 0.25	3.29 ± 0.16	3.12 ± 0.11
SGNIQLDEIIEIARQMR [RPL12A]	3.07 ± 0.12	3 ± 0.12	3.05 ± 0.08	3.35 ± 0.14
HHFTCEITGTSCLTFFQ [ITC1]	1.9 ± 0.05	2.2 ± 0.057	2.04 ± 0.078	2.07 ± 0.047

Sequence	protein stability index (doa10∆)	protein stability index (pdr5∆)	protein stability index (san1∆)	protein stability index (ubr1∆)
IIKQTVHPIPDVAFADG [YMR129W/POM152]	2.8 ± 0.053	2.89 ± 0.062	2.77 ± 0.046	2.82 ± 0.043
ENEVSDIDVTIVSKEYE [ESC2]	3.08 ± 0.13	2.19 ± 0.098	3.09 ± 0.081	1.96 ± 0.066
HAPAYHRSKKDQDQYLE [IRR1]	–	3.56 ± 0.3	2.95 ± 0.19	–
EQLSEEDAKLKTDLELL [RPN1]	3.13 ± 0.15	3.25 ± 0.069	3.25 ± 0.1	3 ± 0.13
MKAVGEYMKRHPTTIES [SEC65]	1.93 ± 0.17	2.24 ± 0.23	1.64 ± 0.3	–
GREGIWSKTIKARTNLH [RPC34]	1.46 ± 0.12	1.58 ± 0.2	–	1.51 ± 0.29
NDKLIVDNDNWVYKTKG [RPN1]	2.81 ± 0.14	2.77 ± 0.18	3.18 ± 0.28	–
ESVLPAARYDYAVAEQC [QCR2]	3.15 ± 0.11	3.25 ± 0.11	2.97 ± 0.11	1.98 ± 0.06
TRSQFCLNTQRGDSTET [RRI1]	3.07 ± 0.094	3.32 ± 0.094	3.22 ± 0.063	3 ± 0.076
KESEISHNENKMDFSSK [YIL149C/MLP2]	2.99 ± 0.086	3 ± 0.093	3.16 ± 0.086	3.19 ± 0.24
EKKAEYFAKLREYLEEY [RPP0]	3.44 ± 0.092	3.31 ± 0.088	3.05 ± 0.067	3.54 ± 0.099
SLEDKILRMGAFRTIES [RRI1]	2.24 ± 0.17	2.04 ± 0.2	1.83 ± 0.18	2.28 ± 0.073
NKLVMKSKFNKSNRSYS [GAL11]	2.92 ± 0.059	2.99 ± 0.099	3.01 ± 0.064	3.01 ± 0.053
ATALQTCAGGRLFNVVV [SMC2]	2.63 ± 0.12	2.9 ± 0.13	3.13 ± 0.15	2.12 ± 0.15
SKTSENKVSNTVSPTQD [SIR2]	2.98 ± 0.14	3.12 ± 0.066	2.83 ± 0.093	3.15 ± 0.12
IINFGEIEQNTELLDEF [RPN10]	3.25 ± 0.1	3.42 ± 0.083	3.23 ± 0.07	3.17 ± 0.072
FERFPSPSTSANVPSTA [RPN4]	1.81 ± 0.046	1.92 ± 0.04	1.56 ± 0.077	2.36 ± 0.039
ALVAGIERYPLKVTKKH [RPL27A]	2.17 ± 0.27	2.51 ± 0.12	1.87 ± 0.24	–
ETKDIRKQIQLLKKIIF [SRB4]	2.34 ± 0.052	2.43 ± 0.044	2.42 ± 0.045	2.39 ± 0.039
NLKVELKEQSEQLKEQM [SMC4]	3.27 ± 0.055	3.2 ± 0.067	3.29 ± 0.035	3.2 ± 0.057
SRCHLVTKDTKKYSSKN [SRP68]	3.04 ± 0.092	2.8 ± 0.1	2.65 ± 0.11	3.12 ± 0.072
PNLLFSMCGFEVRILPR [PRP8]	2.41 ± 0.051	1.9 ± 0.047	2.25 ± 0.055	2.27 ± 0.046
LVTPKSFLFDVLKTLEY [NUT1]	2.91 ± 0.18	2.98 ± 0.18	3.1 ± 0.15	2.92 ± 0.18
SLPRFSKPVLIVGQKNL [DIS3]	2.2 ± 0.089	2.42 ± 0.074	1.77 ± 0.082	1.7 ± 0.12
SVIPEVDREAMLKPNII [YCG1]	3.06 ± 0.12	3.31 ± 0.14	3.08 ± 0.14	3.05 ± 0.12
KFHSELQYLDKHIKNLE [RPN12]	3.14 ± 0.12	2.7 ± 0.17	2.84 ± 0.13	3.15 ± 0.072
